Results published in PMC5268438, “Crystal Structure and Functional Characterization of an Esterase (EaEST) from Exiguobacterium antarcticum” (PLoS ONE, 2017).

Columns and labels:
[1] = target: esterase (EaEST) from Exiguobacterium antarcticum B7 (Exiguobacterium antarcticum B7); assay: AUC; sedimentation velocity, 20°C, 2 mg/ml EaEST in 25 mM Tris-HCl pH 8.0, 200 mM NaCl, 5 mM MgCl2, 2 mM DTT; 45,000 rpm; c(s) with SEDFIT
[2] = target: T1, EaEST (Exiguobacterium antarcticum, UniProt A0ABF7PFX0); assay: X-ray crystal structure, […] Å; type: binding; conditions: crystals from 0.2 M ammonium acetate, pH 7.5, no ligand added; active site, ligand assigned from electron density
T1 construct: gene Eab7_1456; recombinant from pET-21a in E. coli BL21(DE3), purified on His-Trap Ni-NTA, no tag removal told; two protomers in the asymmetric unit (542 residues modelled); catalytic triad Ser96, Asp220, His248
T1 sequence (A0ABF7PFX0 1-272): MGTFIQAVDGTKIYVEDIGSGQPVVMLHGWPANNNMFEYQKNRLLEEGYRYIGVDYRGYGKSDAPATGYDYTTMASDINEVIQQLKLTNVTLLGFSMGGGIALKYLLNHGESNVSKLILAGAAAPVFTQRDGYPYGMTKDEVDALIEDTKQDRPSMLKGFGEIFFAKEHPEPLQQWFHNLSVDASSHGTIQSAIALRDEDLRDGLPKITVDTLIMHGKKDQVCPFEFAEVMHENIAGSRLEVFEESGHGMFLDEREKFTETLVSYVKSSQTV

Row | Molecule | stoichiometry N [1] | X-ray crystal structure, 1.90 Å [2]
1 | esterase (EaEST) from Exiguobacterium antarcticum B7 (enzyme) | 3 | –
2 | CC(=O)OO [peracetate] | – | the peracetate molecule was perfectly fitted into the electron-density map
